pIC50: −log10 of the molar value.
Target: full-length mouse PrP, cellular prion protein PrP^c (mouse) (UniProt P04925)
Sequence (P04925 23-230 limits assumed): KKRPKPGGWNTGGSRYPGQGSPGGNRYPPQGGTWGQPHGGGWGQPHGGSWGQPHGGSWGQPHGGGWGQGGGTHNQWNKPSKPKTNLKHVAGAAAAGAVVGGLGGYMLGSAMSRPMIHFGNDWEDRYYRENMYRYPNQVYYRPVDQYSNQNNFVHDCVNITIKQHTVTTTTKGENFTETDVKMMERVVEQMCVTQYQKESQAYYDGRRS

6D11 anti-PrP mouse monoclonal antibody
pIC50: 9.00

Reference: patent US9217036
